The source of these data is US20240092876A1 (priority 2020, published 2024).

The target in assay [1] is N2 neuraminidase from A/Washington/01/2007 (Influenza A virus A/Washington/01/2007). In words: flow cytometry on NA-expressing cells. (A flow cytometer gives signals particle by particle.)
Assay [2] has as its target N2_A_Leningrad_134_17_57 (influenza A virus). The assay is described as follows: flow cytometry on NA-expressing cells.

B1: FNI19-v3 (antibody, V domains shown)
VH: QVQLVQSGAEVKKPGSSVKVSCKASEGTFNKYTISWVRQAPGQGLEWMGGIIPISGIANYAQKFQGRVAITADESTTTAYMELSSLRSEDSAVYYCATAVSDYFNRDLGWEDYYFPFWGQGTLVTVSS
VL: EIVMTQSPATLSVSPGARATLFCRASRSVSDNLAWYQQKPGQAPRLLIFGASTRATGVPARFSGSGSGTQFTLTISSLQSEDFAVYYCQHYNIWPPWTFGQGTKVEIK
Regarding B1, the MFI normalized vs wt in assay [1] is 0.83; in assay [2], 1.04.
